The source of these data is the Human Domainome abundance scans (Beltran et al. 2025).

± gives the uncertainty stated by the source.

Sequences and labels used below:
B1: Gamma-crystallin D, residues 90 to 170; numbered along this chain, P07320 (parent)
chain: IRLYEREDYRGQMIEFTEDCSCLQDRFRFNEIHSLNVLEGSWVLYELSNYRGRQYLLMPGDYRRYQDWGATNARVGSLRRV

Variants of B1 are the subject of the series. Description: abundance fitness (aPCA) (normalised: wild type 0, dead -1); higher = more abundant; growth selection in yeast, the domain comes from the species named. To be noted: Homo sapiens.
Turning to L44F, the abundance fitness is -0.021 ± 0.16.

For the variant L44R, the abundance fitness was -1.17 ± 0.18.

For the variant L44H, the abundance fitness was -0.721 ± 0.26.

Regarding L44Y, the abundance fitness was -0.073 ± 0.14.

With L44G, the abundance fitness is -0.024 ± 0.057.

Consider L44P, for which the abundance fitness is -1.04 ± 0.28.

L44C: the abundance fitness is -0.093 ± 0.12.

On to L44V, for which the abundance fitness came to 0.035 ± 0.1.

For L44D, the abundance fitness is -0.93 ± 0.2.

On to L44Q, for which the abundance fitness is -0.563 ± 0.25.

For Y50R, the abundance fitness is -0.19 ± 0.081.

Consider Y50Q, for which the abundance fitness is -0.197 ± 0.14.

Take Y50S: the abundance fitness was -0.501 ± 0.13.

On to Y50M, for which the abundance fitness was -0.144 ± 0.14.

Turning to Y50C, the abundance fitness was -0.44 ± 0.24.

As for Y50V, the abundance fitness was -0.979 ± 0.19.

As for Y50A, the abundance fitness is -0.493 ± 0.094.

Y50K: the abundance fitness is -0.234 ± 0.21.

For Y50H, the abundance fitness is -0.052 ± 0.3.

Turning to Y50N, the abundance fitness was 0.003 ± 0.16.

Regarding Y50W, the abundance fitness is -0.283 ± 0.12.

Take Y50I: the abundance fitness is -0.658 ± 0.44.

With Y50G, the abundance fitness is -0.231 ± 0.059.

For Y50L, the abundance fitness is -0.383 ± 0.075.

For Y50D, the abundance fitness is -0.693 ± 0.17.

Take R51D: the abundance fitness was -0.027 ± 0.19.

Turning to R51V, the abundance fitness is 0.025 ± 0.082.

With R51K, the abundance fitness was -0.037 ± 0.17.

In the case of R51W, the abundance fitness is -0.471 ± 0.12.

Consider R51T, for which the abundance fitness was found to be 0.056 ± 0.12.

Take R51H: the abundance fitness was -0.122 ± 0.28.

As to R51N, the abundance fitness came to 0.139 ± 0.21.

R51C: the abundance fitness is -0.023 ± 0.14.

As for R51Q, the abundance fitness is -0.132 ± 0.15.

Consider R51G, for which the abundance fitness stood at 0.064 ± 0.079.

In the case of R51E, the abundance fitness came to 0.158 ± 0.14.

R51L: the abundance fitness came to 0.034 ± 0.075.

On to R51F, for which the abundance fitness was -0.147 ± 0.17.

For R51S, the abundance fitness was -0.039 ± 0.079.

Take R51A: the abundance fitness is -0.024 ± 0.08.

For the variant R51P, the abundance fitness is -0.951 ± 0.19.

Regarding R51Y, the abundance fitness is -0.108 ± 0.31.

For R51I, the abundance fitness was -0.321 ± 0.21.

As to Q54A, the abundance fitness is -0.119 ± 0.093.

With Q54K, the abundance fitness was -0.052 ± 0.13.

Turning to Q54D, the abundance fitness was found to be 0.007 ± 0.19.

On to Q54L, for which the abundance fitness was -0.149 ± 0.11.

Q54W: the abundance fitness is -0.39 ± 0.11.

With Q54T, the abundance fitness turned out to be 0.035 ± 0.11.

Turning to Q54S, the abundance fitness is 0.013 ± 0.1.

For Q54V, the abundance fitness is -0.193 ± 0.085.

For the variant Q54C, the abundance fitness was -0.206 ± 0.11.

Q54Y: the abundance fitness is -0.119 ± 0.26.

For the variant Q54H, the abundance fitness is -0.117 ± 0.14.

Turning to Q54R, the abundance fitness is -0.066 ± 0.12.

Q54I: the abundance fitness is -0.245 ± 0.17.

Consider Q54P, for which the abundance fitness is -0.036 ± 0.094.

Turning to Q54G, the abundance fitness was -0.203 ± 0.12.

As to Q54E, the abundance fitness amounted to 0.018 ± 0.14.

As to Q54M, the abundance fitness is -0.261 ± 0.11.

As for L47E, the abundance fitness is -0.12 ± 0.16.

As to L47P, the abundance fitness is -0.989 ± 0.18.

For the variant L47I, the abundance fitness is -0.16 ± 0.21.

L47M: the abundance fitness was -0.162 ± 0.21.

Consider L47W, for which the abundance fitness came out at 0.048 ± 0.074.

Regarding L47Q, the abundance fitness worked out at 0.084 ± 0.13.

For the variant L47F, the abundance fitness was found to be 0.008 ± 0.2.

With L47D, the abundance fitness was 0.147 ± 0.14.

Consider L47G, for which the abundance fitness is -0.027 ± 0.069.

Regarding L47V, the abundance fitness was -0.142 ± 0.077.

With L47R, the abundance fitness was determined as 0.055 ± 0.058.

Turning to L47H, the abundance fitness was -0.072 ± 0.21.

On to L47K, for which the abundance fitness is -0.221 ± 0.38.

With L47A, the abundance fitness was -0.037 ± 0.12.

For the variant L47Y, the abundance fitness is -0.183 ± 0.19.

Regarding L47N, the abundance fitness was -0.014 ± 0.49.

For L47S, the abundance fitness is 0.074 ± 0.072.

Consider L57E, for which the abundance fitness is -0.91 ± 0.19.

Regarding L57A, the abundance fitness was -0.071 ± 0.12.

For L57M, the abundance fitness amounted to 0.029 ± 0.25.

With L57Y, the abundance fitness was -0.13 ± 0.18.

L57R: the abundance fitness was -0.376 ± 0.11.

As for L57F, the abundance fitness is -0.194 ± 0.23.

Take L57T: the abundance fitness was -0.016 ± 0.17.

L57W: the abundance fitness was -0.623 ± 0.13.

For the variant L57D, the abundance fitness is -0.971 ± 0.39.

For L57C, the abundance fitness is -0.029 ± 0.13.

For L57K, the abundance fitness was -0.173 ± 0.3.

For the variant L57H, the abundance fitness was determined as 0.049 ± 0.4.

As for G60Q, the abundance fitness stood at 0.001 ± 0.14.

In the case of G60D, the abundance fitness is -0.08 ± 0.15.

On to G60K, for which the abundance fitness stood at 0.029 ± 0.12.

For the variant G60L, the abundance fitness is -0.197 ± 0.064.

Take G60S: the abundance fitness turned out to be 0.064 ± 0.086.

On to G60P, for which the abundance fitness was -0.702 ± 0.17.

On to G60A, for which the abundance fitness is -0.038 ± 0.069.

As to G60E, the abundance fitness stood at 0.155 ± 0.09.

In the case of G60F, the abundance fitness was -0.188 ± 0.2.

Consider G60M, for which the abundance fitness is -0.128 ± 0.11.

In the case of G60W, the abundance fitness is -0.133 ± 0.1.

With G60R, the abundance fitness was -0.04 ± 0.055.

Turning to G60N, the abundance fitness was -0.167 ± 0.34.

On to G60H, for which the abundance fitness is -0.225 ± 0.2.

Take G60T: the abundance fitness was -0.122 ± 0.14.

Consider G40I, for which the abundance fitness was -0.113 ± 0.11.

Regarding G40T, the abundance fitness is -0.041 ± 0.11.

For G40S, the abundance fitness was -0.021 ± 0.083.

As for G40R, the abundance fitness was -0.142 ± 0.066.

Consider G40M, for which the abundance fitness was -0.13 ± 0.12.

Consider G40K, for which the abundance fitness is -0.187 ± 0.11.

G40V: the abundance fitness stood at 0.025 ± 0.08.

In the case of G40Q, the abundance fitness was -0.053 ± 0.059.

As to G40L, the abundance fitness is -0.143 ± 0.066.

Regarding G40Y, the abundance fitness is -0.104 ± 0.33.

Take G40P: the abundance fitness was -0.077 ± 0.099.

G40N: the abundance fitness was -0.228 ± 0.14.

Turning to G52H, the abundance fitness is -0.43 ± 0.19.

Regarding G52A, the abundance fitness was -0.489 ± 0.072.

For the variant G52K, the abundance fitness was -0.849 ± 0.27.

Consider G52C, for which the abundance fitness was -0.421 ± 0.12.

In the case of G52R, the abundance fitness is -0.51 ± 0.093.

With G52M, the abundance fitness was -0.57 ± 0.23.

Regarding G52L, the abundance fitness was -0.432 ± 0.1.

Turning to G52F, the abundance fitness was -0.583 ± 0.47.

In the case of G52N, the abundance fitness was -0.705 ± 0.31.

Turning to G52I, the abundance fitness was -0.943 ± 0.32.

On to G52T, for which the abundance fitness is -1.07 ± 0.3.

As to G52E, the abundance fitness was -0.493 ± 0.073.

As for G52V, the abundance fitness is -0.919 ± 0.13.

As to G52S, the abundance fitness is -0.389 ± 0.08.

G52Q: the abundance fitness was -0.599 ± 0.23.

For the variant G52W, the abundance fitness is -0.697 ± 0.11.

Regarding G52D, the abundance fitness is -0.775 ± 0.25.

Take L56W: the abundance fitness is 0.017 ± 0.07.

As to L56M, the abundance fitness came to 0.279 ± 0.12.

For the variant L56D, the abundance fitness was found to be 0.294 ± 0.2.

For L56F, the abundance fitness is 0.093 ± 0.17.

Take L56V: the abundance fitness is -0.027 ± 0.071.

Regarding L56Q, the abundance fitness was -0.054 ± 0.15.

As to L56E, the abundance fitness is -0.024 ± 0.13.

For the variant L56I, the abundance fitness was 0.114 ± 0.15.

As to L56T, the abundance fitness worked out at 0.129 ± 0.11.

On to L56N, for which the abundance fitness turned out to be 0.022 ± 0.28.

As for L56G, the abundance fitness is 0.016 ± 0.062.

Turning to L56P, the abundance fitness is 0.124 ± 0.092.

As to L56K, the abundance fitness worked out at 0.035 ± 0.13.

On to L56S, for which the abundance fitness came out at 0.14 ± 0.071.

Regarding L56A, the abundance fitness was 0.056 ± 0.075.

With L56R, the abundance fitness was determined as 0.086 ± 0.071.

As to L56C, the abundance fitness was found to be 0.048 ± 0.12.

In the case of L56Y, the abundance fitness is -0.207 ± 0.15.

L56H: the abundance fitness is 0.13 ± 0.091.

In the case of Y45D, the abundance fitness is -1.01 ± 0.24.

On to Y45V, for which the abundance fitness is -0.88 ± 0.14.

With Y45M, the abundance fitness is -0.401 ± 0.13.

For the variant Y45H, the abundance fitness is -0.151 ± 0.19.

Take Y45R: the abundance fitness was -0.439 ± 0.072.

As to Y45P, the abundance fitness was -0.553 ± 0.15.

As to Y45C, the abundance fitness is -0.273 ± 0.14.

In the case of Y45G, the abundance fitness is -0.441 ± 0.061.

On to Y45Q, for which the abundance fitness is -0.395 ± 0.19.

Regarding Y45T, the abundance fitness is -0.07 ± 0.097.

With Y45E, the abundance fitness was -1.04 ± 0.19.

Regarding Y45L, the abundance fitness was -0.708 ± 0.13.

Y45A: the abundance fitness is -0.347 ± 0.083.

Regarding Y45N, the abundance fitness was -0.507 ± 0.29.

On to Y45S, for which the abundance fitness was -0.157 ± 0.089.
